Test results: patent US20090203886A1 (OSAKA UNIVERSITY, published 2009)
Several values for one entry are separate records, joined by “and”; a condition that tells them apart may be missing. Equal entries are not always repeated.

T1: human CD20 antigen (human, UniProt P11836 1-297)
T1 sequence (looked up): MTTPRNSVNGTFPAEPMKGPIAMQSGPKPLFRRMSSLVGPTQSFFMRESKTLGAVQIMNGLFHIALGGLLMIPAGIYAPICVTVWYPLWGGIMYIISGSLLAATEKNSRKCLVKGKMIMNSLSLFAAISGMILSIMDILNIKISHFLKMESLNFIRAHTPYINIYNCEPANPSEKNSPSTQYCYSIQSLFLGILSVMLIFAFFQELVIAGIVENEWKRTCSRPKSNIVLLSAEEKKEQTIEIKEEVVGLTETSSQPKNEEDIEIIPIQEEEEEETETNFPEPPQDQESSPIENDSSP


Experiments:
human CD20 antigen [1] = biological target: T1, human CD20 antigen; assay: cell-based or functional assay
human CD20 antigen [2] = biological target: T1, human CD20 antigen; assay: Scatchard analysis on Raji cells, FITC secondary antibody fluorescence (Example 2)
Protocol: The mixture was shaken for one hour at room temperature while shielding against light and primary antibodies binding to cells were detected. After the reaction, the mixture was centrifuged at 3,000 rpm for three minutes and the cells were recovered. The cells were suspended in 200 μl of PBS to remove unreacted FITC-labeled anti murine IgG (H&L) antibody remaining on the cell surface and then centrifuged at 3,000 rpm for three minutes to remove the supernatant. This operation was repeated twice.
After the detection step, the image was digitized using image analysis software Image Quant (Amersham Bioscience) and analyzed using Excel (Microsoft). Background values for the plate, the PBS solution and FITC-labeled secondary antibody displaying non-specific binding to cells were determined. Then a value for the reaction only between the cells and the FITC-labeled secondary antibodies was obtained. Average values for those four points were subtracted from the fluorescent intensity value for each sample in order to obtain the amount of fluorescence of cell-conjugated FITC-labeled secondary antibody. A standard curve was prepared by measuring the amount of fluorescence at various concentrations of control cell-conjugated FITC-labeled secondary antibodies. Thus the amount of cell-conjugated secondary antibody (number of moles or weight) was calculated. The amount of cell-conjugated primary antibody was calculated assuming that each primary antibody and the FITC-labeled secondary antibody react at a ratio of 1:2. Primary antibody in suspension was calculated by subtracting the cell-conjugated amount from the added amount. When calculating the antibody concentration as a molar concentration, the molecular weight of the monoclonal was taken to be 150,000.
Scatchard analysis was used to calculate the antigen number and dissociation constant (Kd value) refer to Scatchard, G.; Ann. N.Y. Acad.

human CD20 antigen [3] = biological target: T1, human CD20 antigen; assay: cell-based or functional assay; remark: listed apart in the source
human CD20 antigen [4] = biological target: T1, human CD20 antigen; assay: Scatchard analysis on Raji cells, FITC anti human Fc secondary (Example 3)
Protocol: (§1) The reaction solution was 1% BSA-PBS solution with a cell number of 5×10⁶ cells and was injected into a 1.5 ml tube to a final volume of 100 μl. Three samples for each test antibody were prepared and four tubes to which antibody was not added were prepared as samples for background calculations.
(§2) After the detecting step, an image was digitized using image analysis software Image Quant (Amersham Bioscience) and analyzed using Excel (Microsoft). Average values for the same test antibodies were calculated and the values for background calculation samples (when only reacting a cell with a FITC-labeled secondary antibody) were subtracted from the test antibody values. The background values derived for the FITC-labeled secondary antibody binding non-specifically to cells, the PBS solution and the plate are omitted. At the same time, a standard curve was prepared by measuring the amount of fluorescence of only FITC-labeled secondary antibodies at amounts of 0, 12.5, 25, 50, 75, 100, 125, and 150 ng per 100 μl. In this manner, the number of moles of secondary antibody binding to cells was calculated. Assuming that each primary antibody and the FITC-labeled secondary antibody react at a ratio of […], the amount of cell-bound primary antibody was calculated. Primary antibody in suspension was calculated by subtracting the bound amount from the added amount. Scatchard analysis was performed using these values in order to calculate a dissociation constant Kd.

human CD20 antigen [5] = biological target: T1, human CD20 antigen; assay: Scatchard analysis on Raji cells (Example 3), average over the clones of the construct
Protocol: as §1, §2

human CD20 antigen [6] = biological target: T1, human CD20 antigen; assay: cell-based or functional assay; remark: listed apart in the source
human CD20 antigen [7] = biological target: T1, human CD20 antigen; assay: cell-based or functional assay; remark: listed apart in the source

Row | Binder | Capacity to Induce Apoptosis (Raji cells) (human CD20 antigen [1]) | Kd (human CD20 antigen [2]) | Cell growth inhibiting test on Raji cells, Absorption (492 nm) (human CD20 antigen [3]) | Kd (human CD20 antigen [4]) | Kd (human CD20 antigen [5]) | Apoptosis (5 ug/ml), DHL4 (human CD20 antigen [6]) | Apoptosis (5 ug/ml), RAJI (human CD20 antigen [6]) | Apoptosis (5 ug/ml), RCK8 (human CD20 antigen [6]) | Apoptosis (5 ug/ml), Wil2-NS (human CD20 antigen [6]) | CDC (10 ug/ml), RAJI (human CD20 antigen [7]) | CDC (10 ug/ml), RC-K8 (human CD20 antigen [7]) | CDC (10 ug/ml), SUDHL4 (human CD20 antigen [7]) | CDC (10 ug/ml), WIL2NS (human CD20 antigen [7])
1 | 1K1422 murine anti CD20 monoclonal antibody (antibody, V domains shown, also called m1422) VH: QVQLQQPGAELVKPGASVKMSCRASGYTFTNYNMHWIKQTPGQGLEWIGAIYPGSGDTSYNRKFKGKATLTADTSSSTAYMQFSSLTSADSAVYYCARFTYYYGGTYGAMDYWGQGTSVTVSL VL: QIVLTQSPPIMSASLGEEITLTCSASSRVSYMLWYQQKSGTSPKLLIYSTSNLASGVPSRFSGSGSGTFYSLTISSVEAEDAADYYCHQWTSNPCTFGGGTKLEIK | 130 | 3.39 nM | 1.77 absorbance 492 nm |  |  |  |  |  |  |  |  |  | 
2 | 1K0924 murine anti CD20 monoclonal antibody (antibody, mouse IgG2b, V domains shown, also called m0924) VH: QVQLQQPGAELVKPGASVKMSCKASGYTFTSYNIHWVKQTPGQGLEWIGAIYPGNGDTSYNQKFKGKATLTSDKSSSTAYMQLSSLTSEDSAVYYCARMSTMITGFDYWGQGTTLTVSS VL: QIVLSQSPAILSASPGEKVTMTCRASSSVSYMHWYQQRPGSSPKPWIYATSNLASGVPARFSGSGSGTSYYFTISRVEAEDAATYYCQQWNSNPPTHGGGTKLEIK | 60 | 1.35 nM |  |  |  |  |  |  |  |  |  |  | 
3 | 1K1228 murine anti CD20 monoclonal antibody (antibody, mouse IgG1, V domains shown, also called m1228) VH: QVQLQQPGAELVKPGASVKVSCKASGFTFTSYNLHWVKQTPGQGLVWIGAIYPGNGDTSYNQKFRGKATLTADISSSTAYMQLSSLTSEDSAVYYCARYYYGYDAMDYWGQGTSVTVSS VL: EIILTQSPTTMAASPGEKITITCSASSSISSYYLRWYQQKPGFSPKVLIYRTSNLASGVPARFSGSGSGTSYSLTIGTMEAEDVATYYCQQGNTVPLTFGSGTKLEIK | 30 | 0.26 nM |  |  |  |  |  |  |  |  |  |  | 
4 | humanized 1K1791 antibody fv (FraL x VenH) (antibody, V domains shown, Kappa, gamma 1 construct; also called hz1791 fv; Fv010) VH: QIQLVQSGPELKKPGASVKISCKASGYTFTNFGVNWVKQAPGKGLKWMGWINTYTGEPSYADDFKGRFAFSLDASVSTAYLQISSLKAEDTSTYFCTRRTNYYGTSYYYAMDYWGQGTTVTVSS VL: STVMTQSPSFLSASVGDRVTITCKASQSVSNDVAWYQQKPGQSPKVLIYFASNRYTGVPDRFSGSGYGTDFTLTISSLQAEDVAVYFCQQDYSSPLTFGAGTKLEIK |  |  |  | 7.17 nM and 7.25 nM | 7.21 nM | 65 relative, m2B8 = 100 | 88 relative, m2B8 = 100 | 50 relative, m2B8 = 100 | 49 relative, m2B8 = 100 | 99 relative, c2B8 = 100 | 498 relative, c2B8 = 100 | 120 relative, c2B8 = 100 | 172 relative, c2B8 = 100
5 | humanized 1K1791 antibody ff (FraL x FraH) (antibody, V domains shown, Kappa, gamma 1 construct; also called hz1791 ff; Ff019) VH: QIQLVQSGSELKKPGASVKVSCKASGYTFTNFGVNWVKQAPGKGLKWMGWINTYTGEPSYADDFKGRFAFSLDASASTAYLQISSLKAEDMATYFCTRRTNYYGTSYYYAMDYWGQGTTVTVSS VL: STVMTQSPSFLSASVGDRVTITCKASQSVSNDVAWYQQKPGQSPKVLIYFASNRYTGVPDRFSGSGYGTDFTLTISSLQAEDVAVYFCQQDYSSPLTFGAGTKLEIK |  |  |  | 8.5 nM and 7.81 nM | 8.15 nM | 96 relative, m2B8 = 100 | 84 relative, m2B8 = 100 | 47 relative, m2B8 = 100 | 49 relative, m2B8 = 100 | 98 relative, c2B8 = 100 | 530 relative, c2B8 = 100 | 121 relative, c2B8 = 100 | 203 relative, c2B8 = 100
6 | humanized 1K1791 antibody sf (SdrL x FraH) (antibody, V domains shown, Kappa, gamma 1 construct; also called hz1791 sf; Sf043) VH: QIQLVQSGSELKKPGASVKVSCKASGYTFTNFGVNWVKQAPGKGLKWMGWINTYTGEPSYADDFKGRFAFSLDASASTAYLQISSLKAEDMATYFCTRRTNYYGTSYYYAMDYWGQGTTVTVSS VL: STVMTQSPDSLAVSLGERATINCKSSQSNSNDVAWYQQKPGQSPKVLIYFASNRYSGVPDRFSGSGYGTDFTLTISSLQAEDVAVYFCQQDYSSPLTFGAGTKLEIK |  |  |  | 11.6 nM and 13.8 nM | 12.7 nM | 143 relative, m2B8 = 100 | 205 relative, m2B8 = 100 | 93 relative, m2B8 = 100 | 100 relative, m2B8 = 100 | 78 relative, c2B8 = 100 | 713 relative, c2B8 = 100 | 111 relative, c2B8 = 100 | 295 relative, c2B8 = 100
